# According to publication PMC5954120:
# pKd: −log10 of the molar value.
# Target: GST-Pmp23 (S. pneumoniae) (UniProt Q8DPY9)
# Experiment: MST; 100 nM GST-Pmp23 labeled with NT-647, titrated with PBP2x (7 nM to 235 μM) or BSA (5 nM to 360 μM); 25 °C; 50 mM Tris-HCl, 150 mM NaCl, 10 mM MgCl2, 0.05% Tween-20; triplicates
# Chain of UniProt Q8DPY9 (Q8DPY9 whole entry): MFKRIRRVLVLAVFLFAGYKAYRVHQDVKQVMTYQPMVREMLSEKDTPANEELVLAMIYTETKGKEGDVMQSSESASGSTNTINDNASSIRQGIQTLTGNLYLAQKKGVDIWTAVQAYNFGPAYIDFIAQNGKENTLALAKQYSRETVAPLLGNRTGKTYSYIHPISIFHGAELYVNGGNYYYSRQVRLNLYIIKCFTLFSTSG
substance,measurement,value
extracellular domain of PBP2x (domain or fragment),pKd,5.05
